Reference: US20250262210A1 (TRUSTEES OF COLUMBIA UNIVERSITY IN THE CITY OF NEW YORK, published 2025)

Biological target: T1, NCAPD3 (human, UniProt P42695 1-1498)
T1 sequence (looked up): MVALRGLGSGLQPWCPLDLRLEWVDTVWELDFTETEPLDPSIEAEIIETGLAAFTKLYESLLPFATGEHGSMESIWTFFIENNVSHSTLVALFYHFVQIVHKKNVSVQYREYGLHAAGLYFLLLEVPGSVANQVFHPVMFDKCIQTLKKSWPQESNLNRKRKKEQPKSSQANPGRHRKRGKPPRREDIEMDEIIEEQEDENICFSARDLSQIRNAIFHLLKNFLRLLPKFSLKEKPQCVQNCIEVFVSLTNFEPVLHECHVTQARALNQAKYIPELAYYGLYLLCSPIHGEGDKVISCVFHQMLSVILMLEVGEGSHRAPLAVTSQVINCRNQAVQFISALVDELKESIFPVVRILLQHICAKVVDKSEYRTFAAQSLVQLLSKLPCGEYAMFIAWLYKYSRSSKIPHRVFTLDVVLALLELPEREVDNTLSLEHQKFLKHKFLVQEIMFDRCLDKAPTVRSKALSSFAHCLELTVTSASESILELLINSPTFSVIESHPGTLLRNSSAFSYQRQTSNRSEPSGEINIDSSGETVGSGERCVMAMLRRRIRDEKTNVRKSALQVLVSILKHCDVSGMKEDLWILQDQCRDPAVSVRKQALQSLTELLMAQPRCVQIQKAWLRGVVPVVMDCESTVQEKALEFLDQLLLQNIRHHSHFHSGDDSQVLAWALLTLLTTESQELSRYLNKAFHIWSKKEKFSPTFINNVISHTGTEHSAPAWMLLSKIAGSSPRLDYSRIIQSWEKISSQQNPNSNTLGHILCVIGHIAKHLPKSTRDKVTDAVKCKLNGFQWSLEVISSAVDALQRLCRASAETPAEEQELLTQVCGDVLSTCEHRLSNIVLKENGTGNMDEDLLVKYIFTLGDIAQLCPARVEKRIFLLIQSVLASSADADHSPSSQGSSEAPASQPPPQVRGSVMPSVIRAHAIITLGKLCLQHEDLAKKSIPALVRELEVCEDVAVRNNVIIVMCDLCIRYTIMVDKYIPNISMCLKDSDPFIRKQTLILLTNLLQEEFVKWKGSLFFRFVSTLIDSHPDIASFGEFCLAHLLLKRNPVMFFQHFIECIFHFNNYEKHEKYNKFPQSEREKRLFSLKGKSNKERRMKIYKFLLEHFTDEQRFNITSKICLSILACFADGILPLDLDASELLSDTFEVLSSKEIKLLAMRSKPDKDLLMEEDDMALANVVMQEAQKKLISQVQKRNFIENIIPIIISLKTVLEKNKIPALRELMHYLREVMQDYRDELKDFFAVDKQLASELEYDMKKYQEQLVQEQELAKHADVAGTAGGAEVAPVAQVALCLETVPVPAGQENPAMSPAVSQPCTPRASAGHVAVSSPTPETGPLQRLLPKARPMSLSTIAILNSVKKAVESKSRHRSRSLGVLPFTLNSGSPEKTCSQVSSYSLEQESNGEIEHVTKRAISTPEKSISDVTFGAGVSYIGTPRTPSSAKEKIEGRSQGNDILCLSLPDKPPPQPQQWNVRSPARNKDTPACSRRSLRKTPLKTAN
Experiment: IP/MS, LZTR1 R810W-FLAG, U87
In short: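 Gel slices were reduced with 5 mM DTT, alkylated with 11 mM IAA and digested overnight at 37° C. with trypsin. Peptides were analysed on an Orbitrap Fusion Tribrid by LC-MS/MS.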

B1: LZTR1 R810W-FLAG (other, human, UniProt Q8N653 1-840, looked up)
chain: MAGPGSTGGQIGAAALAGGARSKVAPSVDFDHSCSDSVEYLTLNFGPFETVHRWRRLPPCDEFVGARRSKHTVVAYKDAIYVFGGDNGKTMLNDLLRFDVKDCSWCRAFTTGTPPAPRYHHSAVVYGSSMFVFGGYTGDIYSNSNLKNKNDLFEYKFATGQWTEWKIEGRLPVARSAHGATVYSDKLWIFAGYDGNARLNDMWTIGLQDRELTCWEEVAQSGEIPPSCCNFPVAVCRDKMFVFSGQSGAKITNNLFQFEFKDKTWTRIPTEHLLRGSPPPPQRRYGHTMVAFDRHLYVFGGAADNTLPNELHCYDVDFQTWEVVQPSSDSEVGGAEVPERACASEEVPTLTYEERVGFKKSRDVFGLDFGTTSAKQPTQPASELPSGRLFHAAAVISDAMYIFGGTVDNNIRSGEMYRFQFSCYPKCTLHEDYGRLWESRQFCDVEFVLGEKEECVQGHVAIVTARSRWLRRKITQARERLAQKLEQEAAPVPREAPGVAAGGARPPLLHVAIREAEARPFEVLMQFLYTDKIKYPRKGHVEDVLLIMDVYKLALSFQLCRLEQLCRQYIEASVDLQNVLVVCESAARLQLSQLKEHCLNFVVKESHFNQVIMMKEFERLSSPLIVEIVRRKQQPPPRTPLDQPVDIGTSLIQDMKAYLEGAGAEFCDITLLLDGHPRPAHKAILAARSSYFEAMFRSFMPEDGQVNISIGEMVPSRQAFESMLRYIYYGEVNMPPEDSLYLFAAPYYYGFYNNRLQAYCKQNLEMNVTVQNVLQILEAADKTQALDMKRHCLHIIVHQFTKVSKLPTLWSLSQQLLLDIIDSLASHISDKQCAELGADI
notes: Stably expressed in U87 cells by lentivirus; also called LZTR1-FLAG-R810W; LZTR1 RW; not shown: FLAG tag
B1: binds.
